What was measured:
[1] = molecular target: T1, human arginase 1 (hArg1), trimeric (human, UniProt P05089 1-322); experiment: ITC, hArg1 trimer (100 uM, syringe) titrated into the antibody (10 uM, cell) at 25 C
T1 construct: Natural homotrimer; It carries two Mn ions in each active site; also called Human Arg1 trimer; trimeric hArg1
T1 sequence: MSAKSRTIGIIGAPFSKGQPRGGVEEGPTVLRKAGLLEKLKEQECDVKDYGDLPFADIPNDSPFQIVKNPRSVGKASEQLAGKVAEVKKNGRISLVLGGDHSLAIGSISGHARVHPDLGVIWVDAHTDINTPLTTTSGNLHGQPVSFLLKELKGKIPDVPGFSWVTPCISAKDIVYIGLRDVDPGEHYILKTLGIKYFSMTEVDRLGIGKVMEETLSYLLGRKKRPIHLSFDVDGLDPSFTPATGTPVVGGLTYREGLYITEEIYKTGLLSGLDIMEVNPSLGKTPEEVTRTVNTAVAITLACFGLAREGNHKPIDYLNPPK
Protocol: (§1) Isothermal titration calorimetry (ITC) was conducted using a MicroCal PEAQ-ITC Automated (Malvern Inc, Westborough, MA) to determine the stoichiometry and thermodynamics properties of the hArg1:mAb interaction. […] Arginase (100 μM) in the ITC syringe was titrated into the antibody (10 μM) in the ITC cell at 25° C. Reference power was set to 10 μcal/sec with initial delay of 60 seconds and stirring speed of 750 rpm. Injection volume was 0.4 μL for the first injection and 4 μL for subsequent injections. Injection duration was 0.8 seconds for the first injection and 6 seconds for subsequent injections with 150 sec spacing. Baseline was adjusted using buffer-buffer titration. Data analysis was done using MicroCal PEAQ-ITC Analysis Software.

[2] = molecular target: T1, human arginase 1 (hArg1), trimeric; experiment: isothermal titration calorimetry: hArg1 trimer (100 µM, syringe) titrated into mAb4 mouse/human chimera (10 µM, cell) at 25 °C
Protocol: as §1

B1: mAb4 (mouse/human chimera) (antibody, V domains shown)
VH: EVQLQQSGPVLVKPGASVKMSCKASEYTFTDYYMNWVKQSHGRSLEWIGVISPYNGGTTYNQKFKGKATLTVDKSSSTAYMELNSLTSEDSAVYYCVYDLYYFDYWGQGTTLTVSS
VL: NIVLTQSPATLSVTPGDSVSLSCRASQRISNDLHWYQQKSHESPRLLIKYASQSISGIPSRFSGSGSGTDFTLSINSVETEDFGMYFCQQSNSWPRTFGGGTKLEIK
[1]
  stoichiometry n (ITC): 0.637
[2]
  -TΔS: 3 kcal/mol
  ΔG: -10.7 kcal/mol
  ΔH: -13.7 kcal/mol

— patent publication US20240002535A1 (Merck Sharp & Dohme, published 2024)
